# Experimental data from patent US7410949 (Hoffmann-La Roche, dated 2008).
# *1 amine or outer side, *2 acyl side, *3 side chain or, on linkers, in order; H or OH if unused. [ ]: non-standard residue; d: D form. Pqa = N-piperazin-1-yl-4(3H)-quinazolinone-3-acetic acid, O=C(Cn1cnc2ccc(N3CCN([*:1])CC3)cc2c1=O)[*:2]; Phe(F5) = N[C@@H](Cc1c(F)c(F)c(F)c(F)c1F)C(=O)O; Bip = N[C@@H](Cc1ccc(-c2ccccc2)cc1)C(=O)O; Dip = N[C@H](C(=O)O)C(c1ccccc1)c1ccccc1; 2Nal = N[C@@H](Cc1ccc2ccccc2c1)C(=O)O; 3Pal = N[C@@H](Cc1cccnc1)C(=O)O; Nle = CCCC[C@H](N)C(=O)O
# Key:
# [1] = target: Y4R; assay: cell-based or functional assay
# [2] = target: Y1R; assay: cell-based or functional assay
# Sequence of Y1R (P25929 whole entry): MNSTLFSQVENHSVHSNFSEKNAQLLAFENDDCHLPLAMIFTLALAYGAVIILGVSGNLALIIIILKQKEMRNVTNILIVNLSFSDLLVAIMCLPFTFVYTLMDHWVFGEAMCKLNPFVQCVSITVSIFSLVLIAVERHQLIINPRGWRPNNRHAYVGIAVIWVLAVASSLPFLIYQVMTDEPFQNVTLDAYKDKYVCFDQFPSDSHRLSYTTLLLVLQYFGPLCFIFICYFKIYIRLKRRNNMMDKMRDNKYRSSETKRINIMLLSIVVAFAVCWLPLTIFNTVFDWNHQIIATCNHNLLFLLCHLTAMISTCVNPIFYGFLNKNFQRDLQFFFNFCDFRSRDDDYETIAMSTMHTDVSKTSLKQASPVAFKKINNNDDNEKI
Binder,Y4R EC50(nM) FLIPR [1],Y1R EC50(nM) FLIPR [2]
"Ac-I[Nle][Pqa]RH[Phe(F5)]LNLVTRQRY-NH2 (SMILES CCCC[C@H](NC(=O)[C@@H](NC(C)=O)[C@@H](C)CC)C(=O)N1CCN(c2ccc3ncn(CC(=O)N[C@@H](CCCNC(=N)N)C(=O)N[C@@H](Cc4c[nH]cn4)C(=O)N[C@@H](Cc4c(F)c(F)c(F)c(F)c4F)C(=O)N[C@@H](CC(C)C)C(=O)N[C@@H](CC(N)=O)C(=O)N[C@@H](CC(C)C)C(=O)N[C@H](C(=O)N[C@H](C(=O)N[C@@H](CCCNC(=N)N)C(=O)N[C@@H](CCC(N)=O)C(=O)N[C@@H](CCCNC(=N)N)C(=O)N[C@@H](Cc4ccc(O)cc4)C(N)=O)[C@@H](C)O)C(C)C)c(=O)c3c2)CC1) [Ac-Ile-Nle-Pqa-Arg-His-(2,3,4,5,6 Penta fluoroPhe)-Leu-Asn-Leu-Val-Thr-Arg-Gln-Arg-Tyr-NH2]",> 5000 nM,
IKRHYLNLVTRQRY (N-methyl Val at PYY position 31 (residue 7 of the second part); Pqa moiety between the two parts; C-terminal amide) [H-Ile-Lys-Pqa-Arg-His-Tyr-Leu-Asn-Leu-(NMe)Val-Thr-Arg-Gln-Arg-Tyr-NH2],> 5000 nM,> 5000 nM
Ac-I[Nle][Pqa]RH[2Nal]LNLVTRQRY-NH2 (SMILES CCCC[C@H](NC(=O)[C@@H](NC(C)=O)[C@@H](C)CC)C(=O)N1CCN(c2ccc3ncn(CC(=O)N[C@@H](CCCNC(=N)N)C(=O)N[C@@H](Cc4c[nH]cn4)C(=O)N[C@@H](Cc4ccc5ccccc5c4)C(=O)N[C@@H](CC(C)C)C(=O)N[C@@H](CC(N)=O)C(=O)N[C@@H](CC(C)C)C(=O)N[C@H](C(=O)N[C@H](C(=O)N[C@@H](CCCNC(=N)N)C(=O)N[C@@H](CCC(N)=O)C(=O)N[C@@H](CCCNC(=N)N)C(=O)N[C@@H](Cc4ccc(O)cc4)C(N)=O)[C@@H](C)O)C(C)C)c(=O)c3c2)CC1) [Ac-Ile-Nle-Pqa-Arg-His-(2)Nal-Leu-Asn-Leu-Val-Thr-Arg-Gln-Arg-Tyr-NH2],> 5000 nM,
IKRHYLNLVTRQRY (N-terminal acetyl; Pqa moiety between the two parts; C-terminal amide) [Ac-Ile-Lys-Pqa-Arg-His-Tyr-Leu-Asn-Leu-Val-Thr-Arg-Gln-Arg-Tyr-NH2],> 5000 nM,
Ac-I[Nle][Pqa]RH[Dip]LNLVTRQRY-NH2 (SMILES CCCC[C@H](NC(=O)[C@@H](NC(C)=O)[C@@H](C)CC)C(=O)N1CCN(c2ccc3ncn(CC(=O)N[C@@H](CCCNC(=N)N)C(=O)N[C@@H](Cc4c[nH]cn4)C(=O)N[C@H](C(=O)N[C@@H](CC(C)C)C(=O)N[C@@H](CC(N)=O)C(=O)N[C@@H](CC(C)C)C(=O)N[C@H](C(=O)N[C@H](C(=O)N[C@@H](CCCNC(=N)N)C(=O)N[C@@H](CCC(N)=O)C(=O)N[C@@H](CCCNC(=N)N)C(=O)N[C@@H](Cc4ccc(O)cc4)C(N)=O)[C@@H](C)O)C(C)C)C(c4ccccc4)c4ccccc4)c(=O)c3c2)CC1) [Ac-Ile-Nle-Pqa-Arg-His-Dip-Leu-Asn-Leu-Val-Thr-Arg-Gln-Arg-Tyr-NH2],> 5000 nM,
Ac-I[Nle][Pqa]FHYLNLVTRQRY-NH2 (SMILES CCCC[C@H](NC(=O)[C@@H](NC(C)=O)[C@@H](C)CC)C(=O)N1CCN(c2ccc3ncn(CC(=O)N[C@@H](Cc4ccccc4)C(=O)N[C@@H](Cc4c[nH]cn4)C(=O)N[C@@H](Cc4ccc(O)cc4)C(=O)N[C@@H](CC(C)C)C(=O)N[C@@H](CC(N)=O)C(=O)N[C@@H](CC(C)C)C(=O)N[C@H](C(=O)N[C@H](C(=O)N[C@@H](CCCNC(=N)N)C(=O)N[C@@H](CCC(N)=O)C(=O)N[C@@H](CCCNC(=N)N)C(=O)N[C@@H](Cc4ccc(O)cc4)C(N)=O)[C@@H](C)O)C(C)C)c(=O)c3c2)CC1) [Ac-Ile-Nle-Pqa-Phe-His-Tyr-Leu-Asn-Leu-Val-Thr-Arg-Gln-Arg-Tyr-NH2],> 5000 nM,> 5000 nM
IKRHYLNLVTRQRY (N-methyl Lys at PYY position 4 (residue 2 of the first part); Pqa moiety between the two parts; C-terminal amide) [H-Ile-NMeLys-Pqa-Arg-His-Tyr-Leu-Asn-Leu-Val-Thr-Arg-Gln-Arg-Tyr-NH2],> 5000 nM,
Ac-I[Nle][Pqa]R[3Pal]YLNLVTRQRY-NH2 (SMILES CCCC[C@H](NC(=O)[C@@H](NC(C)=O)[C@@H](C)CC)C(=O)N1CCN(c2ccc3ncn(CC(=O)N[C@@H](CCCNC(=N)N)C(=O)N[C@@H](Cc4cccnc4)C(=O)N[C@@H](Cc4ccc(O)cc4)C(=O)N[C@@H](CC(C)C)C(=O)N[C@@H](CC(N)=O)C(=O)N[C@@H](CC(C)C)C(=O)N[C@H](C(=O)N[C@H](C(=O)N[C@@H](CCCNC(=N)N)C(=O)N[C@@H](CCC(N)=O)C(=O)N[C@@H](CCCNC(=N)N)C(=O)N[C@@H](Cc4ccc(O)cc4)C(N)=O)[C@@H](C)O)C(C)C)c(=O)c3c2)CC1) [Ac-Ile-Nle-Pqa-Arg-(3-Pal)-Tyr-Leu-Asn-Leu-Val-Thr-Arg-Gln-Arg-Tyr-NH2],> 5000 nM,
IKRHYLNLVTRQRY ((D)Tyr at PYY position 36 (residue 12 of the second part); Pqa moiety between the two parts; C-terminal amide) [H-Ile-Lys-Pqa-Arg-His-Tyr-Leu-Asn-Leu-Val-Thr-Arg-Gln-Arg-(D)Tyr-NH2],> 5000 nM,
IKRHYLNLVTRQRY (N-methyl Arg at PYY position 33 (residue 9 of the second part); Pqa moiety between the two parts; C-terminal amide) [H-Ile-Lys-Pqa-Arg-His-Tyr-Leu-Asn-Leu-Val-Thr-(NMe)Arg-Gln-Arg-Tyr-NH2],> 5000 nM,> 5000 nM
IKRHYLNLVTRQRY ((D)Ile at PYY position 3 (residue 1 of the first part); Pqa moiety between the two parts; C-terminal amide) [H-(D) Ile-Lys-Pqa-Arg-His-Tyr-Leu-Asn-Leu-Val-Thr-Arg-Gln-Arg-Tyr-NH2],> 5000 nM,> 5000 nM
IKRHYLNLVTRQRY ((D)Asn at PYY position 29 (residue 5 of the second part); Pqa moiety between the two parts; C-terminal amide) [H-Ile-Lys-Pqa-Arg-His-Tyr-Leu-(D))Asn-Leu-Val-Thr-Arg-Gln-Arg-Tyr-NH2],> 5000 nM,
IKRHYLNLVTRQRY ((D)Lys at PYY position 4 (residue 2 of the first part); Pqa moiety between the two parts; C-terminal amide) [H-Ile-(D)Lys-Pqa-Arg-His-Tyr-Leu-Asn-Leu-Val-Thr-Arg-Gln-Arg-Tyr-NH2],> 5000 nM,> 5000 nM
Ac-I[Nle][Pqa]RH[Bip]LNLVTRQRY-NH2 (SMILES CCCC[C@H](NC(=O)[C@@H](NC(C)=O)[C@@H](C)CC)C(=O)N1CCN(c2ccc3ncn(CC(=O)N[C@@H](CCCNC(=N)N)C(=O)N[C@@H](Cc4c[nH]cn4)C(=O)N[C@@H](Cc4ccc(-c5ccccc5)cc4)C(=O)N[C@@H](CC(C)C)C(=O)N[C@@H](CC(N)=O)C(=O)N[C@@H](CC(C)C)C(=O)N[C@H](C(=O)N[C@H](C(=O)N[C@@H](CCCNC(=N)N)C(=O)N[C@@H](CCC(N)=O)C(=O)N[C@@H](CCCNC(=N)N)C(=O)N[C@@H](Cc4ccc(O)cc4)C(N)=O)[C@@H](C)O)C(C)C)c(=O)c3c2)CC1) [Ac-Ile-Nle-Pqa-Arg-His-Bip-Leu-Asn-Leu-Val-Thr-Arg-Gln-Arg-Tyr-NH2],> 5000 nM,
IKRHYLNLVTRQRY (N-methyl Tyr at PYY position 27 (residue 3 of the second part); Pqa moiety between the two parts; C-terminal amide) [H-Ile-Lys-Pqa-Arg-His-(NMe)Tyr-Leu-Asn-Leu-Val-Thr-Arg-Gln-Arg-Tyr-NH2],> 5000 nM,> 5000 nM
